From patent US20230181748A1, “MEANS AND METHODS FOR THE TREATMENT OF PATHOLOGICAL AGGREGATION” (priority 2020, published 2023)

Key:
[1] = molecular target: Tau aggregates (Homo sapiens, UniProt P10636); test: hetero-dimeric tandem capping peptide screen, Tau biosensor cell line; assay type: cell-based; details: 625 nM capping peptide, 50 nM Tau seeds, 24 hours
[2] = molecular target: T1, Sup35-NM aggregates (Saccharomyces cerevisiae, UniProt P05453); test: hetero-dimeric tandem capping peptide screen, NM biosensor cell line; assay type: cell-based; details: 625 nM capping peptide, 50 nM NM seeds, 24 hours
T1 sequence (P05453 1-253 limits assumed): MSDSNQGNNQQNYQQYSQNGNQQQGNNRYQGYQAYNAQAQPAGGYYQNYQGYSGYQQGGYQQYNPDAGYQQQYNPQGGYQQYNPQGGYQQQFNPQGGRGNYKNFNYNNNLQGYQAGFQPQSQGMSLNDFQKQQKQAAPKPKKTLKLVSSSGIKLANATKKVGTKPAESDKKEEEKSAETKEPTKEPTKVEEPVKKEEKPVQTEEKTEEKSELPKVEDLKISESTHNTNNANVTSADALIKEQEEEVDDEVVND

[3] = molecular target: T2, Aβ fibrils (Homo sapiens, UniProt P05067); test: in vitro Aβ seeding aggregation assay (Th-T); assay type: biochemical; details: fibrils 10 μM preincubated with 50 μM capping peptide approx. 4 hours; 10% added to 10 μM monomeric Aβ
T2 construct: mixed with preformed, sonicated Aβ aggregates (2 μM)
T2 sequence (P05067 672-713 limits assumed): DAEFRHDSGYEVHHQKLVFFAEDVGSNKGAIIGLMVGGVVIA
Experimental: Capping peptides from Table 6 were freshly dissolved in DMSO (stock concentration 1 mM) and filtered before the assay. 1 μL peptide capping solution was mixed with 19 μL preformed, sonicated Aβ fibrils (stock concentration 10 μM). As such, this mixture contained 10 μM Aβ fibrils and 50 μM capping peptide and was incubated for approx. 4 hours. Next, freshly dissolved monomeric Aβ was prepared by separation on a column. This monomeric Aβ (final concentration 10 μM) was mixed with 10% of the Aβ fibrils-peptide mixture and Th-T was added to monitor aggregation.

[4] = molecular target: T3, Aβ aggregates (Homo sapiens, UniProt P05067); test: Aβ biosensor screening assay; assay type: cell-based; details: for capping activity of single capping sequence across all hetero-tandem peptides: analysis of all tandems containing the single sequence (FIG. 22); for relative number of cells positive for induced Aβ aggregation (seeding capacity of Aβ seeds): 100 nM Aβ aggregates on cells, concentration range of capping peptide
T3 construct: mixed with preformed, sonicated Aβ aggregates (2 μM)
T3 sequence (P05067 672-713 limits assumed): as above
Experimental: Hetero-tandem capping peptides depicted in Table 5 were dissolved in DMSO, filtered and mixed with preformed, sonicated Aβ aggregates (2 μM). This mixture was incubated for approx. 4 hours and transfected into Aβ biosensor cells. Aβ biosensor cells stably express soluble Aβ-mCherry and Aβ aggregation can be induced by transfecting preformed Aβ aggregates in these cells (FIG. 17). The final concentration of Aβ aggregates on the cells is 100 nM and a concentration range of capping peptides was used. In other words, the condition in which no seeds are added is shown as 0, while the condition in which 100 nM Aβ aggregates are added (without capping peptides) is shown as 1.

[5] = molecular target: T4, preformed tau aggregates (Homo sapiens, UniProt P10636); test: tau biosensor seeding assay; assay type: cell-based; details: 20 hours after transfection; for fraction of cells with green spots (induced tau aggregation) / fraction of cells with red spots (exogenous preformed tau aggregates): single concentration 500 nM on cells, 200 nM preformed tau aggregates
T4 sequence (P10636 1-441 isoform P10636-8): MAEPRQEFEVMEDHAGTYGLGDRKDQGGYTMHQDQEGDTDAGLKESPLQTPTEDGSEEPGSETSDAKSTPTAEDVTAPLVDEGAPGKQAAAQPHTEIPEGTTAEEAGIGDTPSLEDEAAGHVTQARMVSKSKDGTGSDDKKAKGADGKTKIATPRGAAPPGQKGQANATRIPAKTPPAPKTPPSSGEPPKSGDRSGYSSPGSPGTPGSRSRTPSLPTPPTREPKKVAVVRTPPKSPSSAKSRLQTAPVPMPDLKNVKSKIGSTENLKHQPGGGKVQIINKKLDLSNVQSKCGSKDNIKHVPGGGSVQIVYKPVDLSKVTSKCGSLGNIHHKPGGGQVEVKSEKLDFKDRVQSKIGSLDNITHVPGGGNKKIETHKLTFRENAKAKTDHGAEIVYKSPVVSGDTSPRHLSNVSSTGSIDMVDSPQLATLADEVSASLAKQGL
Experimental: The 33 different non-natural molecules (with a final concentration of 10 μM) were mixed with preformed (sonicated) tau aggregates (with a final concentration of 4 μM). The preformed tau aggregates are labeled with a far-red atto-633 dye to monitor the efficiency of cellular uptake and degradation. After an incubation of 6 hours the resulting non-natural molecule—tau aggregate mixture was transfected in tau biosensor cells (described in Holmes et al (2014) Proc Natl Acad Sci USA. 111(41): E4376-E4385). The tau biosensor cell line is a monoclonal FRET biosensor HEK293T cell line stably expressing both the tau repeat domain (RD) fused to the fluorescent protein CFP and the tau repeat protein fused to the fluorescent protein YFP. Without the addition of preformed tau seeds, the biosensor cells stably express diffuse tau (soluble). However, exposure to exogenous preformed tau aggregates induces tau aggregation, generating a FRET signal with the CFP-YFP pair, intensifying the fluorescent signal in the tau inclusions. The FRET signal allows to distinguish the tau aggregate formation from the monomeric background. The use of phospholipids (e.g. lipofectamine—Source: Thermofisher) for the transfection of exogenous tau aggregates maximizes the aggregate inducing capacity.
The final peptide concentration of the non-natural molecules applied on the cells is 500 nM and the final concentration of preformed tau aggregates is 200 nM. 20 hours after transfection cells were fixed and two readouts were used to quantify the activities of the non-natural molecules: • determination of the fraction of cells with green spots: these are the cells that have induced tau aggregation. • determination of the fraction of cells with red spots: these are the cells that are positive for preformed tau aggregates.
In this example non-natural molecules of the invention were generated based on the sequences of capping peptides CAP1_TR and HET (sequences depicted in column 2 in Table 2). A tau biosensor seeding assay was performed with a concentration range of peptides. Thus, the assay is the same as described in example 2 but now a range of concentrations of capping peptides and non-natural molecules comprising the capping peptides were used to incubate with preformed tau aggregates. FIGS. 6 and 7 depict the final concentration of the peptides and derived non-natural molecules applied on the cells (see FIGS. 6 and 7).

[6] = molecular target: T4, preformed tau aggregates; test: Microscale Thermophoresis (MST) with preformed tau aggregates; assay type: binding
Experimental: To measure the affinity of the capping peptides, and non-natural molecules derived thereof, with full length tau, we performed Microscale Thermophoresis (MST, Monolith NT.Automated) experiments. Briefly, atto-633-labeled tau monomers or atto-633-labeled preformed tau aggregates were mixed with a concentration range of capping peptides, and non-natural molecules derived thereof, and MST measurement were performed.

[7] = molecular target: T4, preformed tau aggregates; test: spreading of tau pathology in hTau[P301L] mice; assay type: in vivo; details: tau aggregates pretreated 6 hours, injected in hippocampus of hTau[P301L] mice; nine weeks; vs vehicle
Experimental: In an alternative transgenic murine model preformed tau aggregates are pretreated with the non-natural molecule (SEQ ID NO: 22) and after an incubation of 6 hours, this preformed mixture is injected into the hippocampus of young hTau^[P301L] mice (see Kent BA et al (2017) Brain Behay. 8(1) e00896), which haven't developed any tau pathology yet. Nine weeks after injection mice are sacrificed. Immunohistochemical (IHC) quantification of AT8-positive inclusions in the ipsilateral (injection site) and contralateral hippocampus (opposite site) is conducted. Preformed tau aggregates pretreated with a buffer serve as a control vehicle. We observe that the level of tau pathology spread to the contralateral hippocampus is reduced when the non-natural molecule depicted in SEQ ID NO: 22 is applied as compared to the vehicle.

Sequence of Tau aggregates (P10636 1-441 isoform P10636-8): as above

With “EQIINKGSFQIVYK (Capping peptide) [CAP_4D]” the “fraction of cells with induced aggregates, normalized” value (“fraction of cells … normalized” below) [1] was “most performant peptides” and the “specificity for tau aggregation (a-specific effects in Sup35-NM biosensor line)” value (“specificity for tau aggregation” below) [2] was “specific for inhibiting tau aggregation”.
For “GWVVIAGSKLKFFA (Capping peptide) [AbCAP19]”, the “seeding capacity of preformed, sonicated Aβ fibrils (Th-T aggregation)” value (shortened to “seeding capacity of preformed”) [3] was “clear effect on the seeding capacity”.
With KLWFFA (Capping peptide) the “capping activity of single capping sequence across all hetero-tandem peptides” value [4] was “score well at the highest concentrations”.
“MVGGPVGSKLKFFA (Capping peptide) [AbCap 14]” was tested, and the “relative number of cells positive for induced Aβ aggregation (seeding capacity of Aβ seeds)” value (shortened to “relative number of cells positive”) [4] was “effect at the highest concentrations”.
With “MVGGVKGSKWVFFP (Capping peptide) [AbCap 11]” the “relative number of cells positive” value [4] was “effect at the highest concentrations”.
MVWGVV (Capping peptide) was tested, and the “capping activity of single capping sequence across all hetero-tandem peptides” value [4] was “score well at the highest concentrations”.
In the case of “MVWGVVGSKLKFFA (Capping peptide) [AbCAP_2]”, the “seeding capacity of preformed” value [3] is reported as “clear effect on the seeding capacity”.
In the case of “MVWGVVGSKLWFFA (Capping peptide) [AbCAP3]”, the “seeding capacity of preformed” value [3] is reported as “clear effect on the seeding capacity”.
For “MVWGVVGSKWVFFA (Capping peptide) [AbCap 4]”, the “relative number of cells positive” value [4] was “concentration-dependent effect” and the “seeding capacity of preformed” value [3] was “clear effect on the seeding capacity”.
For RWQIVYKEGSRWQIVYKR [CAP1_TR], the “fraction of cells with red spots (exogenous tau aggregates; tau aggregate degradation)” value ([5]; concentration range of peptide, tau aggregates pre-treated 6 hours) was “slight reduction in cells positive for red spots in the highest concentration”.
In the case of “VQWINKGSVQMVYK (Capping peptide) [CAP_1E]”, the “fraction of cells … normalized” value [1] is reported as “most performant peptides” and the “specificity for tau aggregation” value [2] is reported as “specific for inhibiting tau aggregation”.
For “VQWINKGSWQIVYK (Capping peptide) [CAP_1A]”, the “fraction of cells … normalized” value [1] was “most performant peptides” and the “specificity for tau aggregation” value [2] was “specific for inhibiting tau aggregation”.
In the case of WQIVYKGSVWMINK [HET], the “fraction of cells with green spots (induced tau aggregation)” value (shortened to “fraction of cells with green spots”) [5] is reported as “reduced tau aggregation”, the “fraction of cells with red spots (exogenous preformed tau aggregates)” value (“fraction … (exogenous preformed tau aggregates)” for short) [5] is reported as “reduction in exogenous preformed tau aggregates” and the “affinity for tau aggregates compared to tau monomers (MST)” value ([6]; aggregates versus monomers) is reported as “higher affinity for tau aggregates compared to tau-monomers”. The “affinity for tau aggregates (MST)” value ([6]; atto-633-labeled preformed tau aggregates, concentration range) was “measured affinities are significantly higher compared to CAP1_TR variants”.
With “WQIVYKGSVWMINKGSGSKFERQKILDQRFFE (HET_CMA1) [HET-CMA1]” the “fraction of cells with green spots” value [5] was “reduced tau aggregation” and the “fraction … (exogenous preformed tau aggregates)” value [5] was “reduction in exogenous preformed tau aggregates”.
“WQIVYKGSVWMINKGSGSNLLRLTGW (HET_JAV) [HET-JAV]” was tested, and the “fraction of cells with green spots” value [5] was “reduced tau aggregation”, the “fraction … (exogenous preformed tau aggregates)” value [5] was “reduction in exogenous preformed tau aggregates” and the “level of tau pathology spread to the contralateral hippocampus (AT8-positive inclusions, IHC)” value [7] was “reduced”.
In the case of “WQIVYKGSVWMINKGSGSVKKDQGSKFERQ (HET_CMA2) [HET-CMA2]”, the “fraction of cells with green spots” value [5] is reported as “reduced tau aggregation” and the “fraction … (exogenous preformed tau aggregates)” value [5] is reported as “reduction in exogenous preformed tau aggregates”.
